Experimental data from publication PMC5697884, “In vitro characterization of the antivirulence target of Gram-positive pathogens, peptidoglycan O-acetyltransferase A (OatA)” (PLoS Pathogens, 2017).

System: CC(=O)Oc1ccc([N+](=O)[O-])cc1
Test: purified protein
Details: hydrolysis (esterase) without acceptor, 50 mM sodium phosphate pH 6.5, 5% (v/v) ethanol, 25 °C

Row | Substance | Km [µM] | kcat [s⁻¹]
1 | SpOatAC (Streptococcus pneumoniae R6) | 56 ± 6.5 | 0.016 ± 0.00039
2 | SaOatAC (Staphylococcus aureus subsp. aureus NCTC 8325) | 1150 ± 70 | 0.060 ± 0.00078
